In a protein production outcome set (Wang et al. 2014):

Assay: label from the status in PepcDB records

| Sequence | protein production |
| --- | --- |
| MKGRWVKYLLMGTVVAMLAACSSKPTDRGQQYKDGKFTQPFSLVNQPDAVGAPINAGDFAEQINHIRNSSPRLYGNQSNVYNAVQEWLRAGGDTRNMRQFGIDAWQMEGADNYGNVQFTGYYTPVIQARHTRQGEFQYPIYRMPPKRGRLPSRAEIYAGALSDKYILAYSNSLMDNFIMDVQGSGYIDFGDGSPLNFFSYAGKNGHAYRSIGKVLIDRGEVKKEDMSMQAIRHWGETHSEAEVRELLEQNPSFVFFKPQSFAPVKGASAVPLVGRASVASDRSIIPPGTTLLAEVPLLDNNGKFNGQYELRLMVALDVGGAIKGQHFDIYQGIGPEAGHRAGWYNHYGRVWVLKTAPGAGNVFSG | not failed |
| MKGWKRNLYILVVCQFLVVSAMTMIIPFLPLYLQELGVTDPSEVSLWAGIIFAANFLTAFLFSPLWSRLADRYGRKMMILRSGFGMALIIGLTGFAQGPLSLLCLRLLNGVISGFIPASIGLVATNTPKEKAGYALGFLQAGAVSGGICGPLIGGIMAQAFGYRMIFFLTGLCIFIAALVVLLFVNEQFTPNPKEEKTNTWGEFKKITAIRPIFSLYVVVFLIQFAVMGVNPLISLFVEELVSGVNVALFAGLAISATGFANMLSSMQLGKLSDKAGAHHVLFFCLLGTVIFMIPQAFVQQLWQLIVLRFFVGLSLGGLLPAANALVRMHAPKGMESRTYGFSTSALYLGNMVGPTVGGAVVATVGIRGLFLISAFTLLLTVWIVKGKVMPASDKQFRYEQNERKIASS | failed |
| MKHAKQIAEHATIQSFLNCYLRETGSGEWITEDKRIEDIFYHLFQRDTCSTYLCCRLSAQNITLYGEVIYKSPTDRHLFGEQFYYQMGDSNSVMKADYVTVITFLIKEMSINYGEGTNPAELMLRVIRSCQNIEEFTKERKEDTSALYGFHTSFIEAEQSLLFGHLTHPTPKSRQGILEWKSAMYSPELKGECQLHYFRAHKSIVNEKSLLLDSTTVILKEELRNDEMVSKEFISKYCNEDEYSLLPIHPLQAEWLLHQPYVQDWIEQGVLEYIGPTGKCYMATSSLRTLYHPDAKYMLKFSFPVKVTNSMRINKLKELESGLEGKAMLNTAIGEVLEKFPGFDFICDPAFITLNYGTQESGFEVIIRENPFYSEHADDATLIAGLVQDAIPGERTRLSNIIHRLADLESRSCEEVSLEWFRRYMNISLKPMVWMYLQYGVALEAHQQNSVVQLKDGYPVKYYFRDNQGFYFCNSMKEMLNNELAGIGERTGNLYDDYIVDERFRYYLIFNHMFGLINGFGTAGLIREEILLTELRTVLESFLPYNREPSTFLRELLEEDKLACKANLLTRFFDVDELSNPLEQAIYVQVQNPLVREVAVRS | failed |
| MKHAQKYRYFSLLMGLVLLLSACQIGATTKDDNQAATKEATVELNRTTTPTLFFHGYAGTKNSFGSLLHRLEKQGATTQELVLLVKPDGTVVKERGALSGKATNPSVQVLFEDNKNNEWNQTEWIKNTLLYLQKNYQVNKANIVGHSMGGVSGLRYLGTYGQDTSLPKIEKFVSIGAPFNDFIDTSQQQTIETELENGPTEKSSRYLDYQEMINVVPEKLPILLIGGQLSPTDLSDGTVPLSSALAVNALLRQRGTQVTSQIIKGENAQHSQLHENPEVDQLLIEFLWPSKK | failed |
| MKHLNIYIMLLGFSIFTGATFNLAKYTVGYFSPSSSAAWRFGLAAAVMLIILIFTEGIKKSQLRKNAVSYIVLGIIGIFGFNALFFVGLKYTSPVNGALIMGLNPLLTAILARIILKDNMTKKQVLGIFFAFIGVLLVITQGSIETIKTLSISGGDLIIFTGNVCWALYGVLGRRFVKDGTPLSTTTYTMVIGAVSLIVVSLFTSKPVSLSNIPIGVWGAIAFMAFFTSVLGYLWWNQGIKEIGASKTSLFFNLVPVVTMIISFAVGTPIKVFQVIGAVLVILGVLTASGVIRIPKYNTKEQSAI | failed |
| MKHLVICIALLTVGACCFAQQKKVASHKAASGNPVFQGWYADPEGIIYDDTYWIFPTWSDLYENQTFFDCFSSKDLVNWTKHASVLDTTAVKWAKKAMWAPSVIRKNGKYYIFFGANDVHEGEIGGIGVAVSDRPEGPYKDLLGKPLINEIVNGAQPIDQFVYNDNGHYYMYYGGWGHCNVVQLNDDFTGLVPFEDGTVYKEVTPENYVEGPFMFKKDGKYYFMWSEGGWGGPDYSVAYAISDSPFGPFKRVAKILQQDPSVATSAGHHSLLHAPGTDDYYIVYHRRPLNDNARDHRVTCIDKMTFDKDGFINPVKMTFEGVPAQKIKKSKKK | failed |
| MKHYEVEILDAKTREKLCFLDKVEPHATIAEIKNLFTKTHPQWYPARQSLRLDPKGKSLKDEDVLQKLPVGTTATLYFRDL | not failed |
| MKIAIIRKIPTRPEQISRPSHSARAGPETHCSMPCGFAASRKAGRIAVKETIKEIVMGMLVEGVWKDVWYDTKETKGHFKRSASQFRNWVTVDGAVGPSGEGGFEAEKDRYHLYVSFACPWAHRTLIFRKLKKLEDLISVSVVDPLMLENGWEFKPEGERTPGATQDHLFGSSTLWQVYTKADPTYSGRVTVPVLWDKKRGTIVSNESAEIIRMFNVAFNDLTGSDADYYPKALRAEIDALNDVIYDTVNNGVYKAGFATTQDAYQQNAVKVFETLDMLEDRLKDRRFLFGSEQTEADWRLFTTLVRFDPVYVGHFKCNIRRIHDYPHLTGYLRDLYQTPGVPDTVDMRHIKEHYYRSHRTINPTGIVPIGPELDLTMAHGREALS | failed |
| MKIAILYREEREKEGEFLKEKISKEHEVIEFGEANAPGRVTADLIVVVGGDGTVLKAAKKAADGTPMVGFKAGRLGFLTSYTLDEIDRFLEDLRNWNFREETRWFIQIESELGNHLALNDVTLERDLSGKMVEIEVEVEHHSSMWFFADGVVISTPTGSTAYSLSIGGPIIFPECEVLEISPIAPQFFLTRSVVIPSNFKVVVESQRDINMLVDGVLTGKTKRIEVKKSRRYVRILRPPEYDYVTVIRDKLGYGRRIE | not failed |
| MKIAIVGSGNGAVTAAVDMVDKGHDVRLYCRNESISKFDVALEKGGFDFYNEGEEKFIEFTDISDDMEYVLDGADIVQVIIPSSFIEYYAKVMSKFVTNDHLIFFNIAASMGSIRFMNVLEDRHIDVHPHFAEANTLTYGTRVDFNNAKVDLSLNVRRVFFSTFDRSELNESYEKVSKIYDYLVKEESLLKTNL | failed |
| MKIALINENSQASKNHIIYDSLKEATDKKGYQLFNYGMRGEEGESQLTYVQNGLMAAILLNTKAVDFVVTGCGTGVGAMLALNSFPGVVCGLAVDPTDAYLYSQINGGNALSIPYAKGFGWGAELTLKLMFERLFAEEMGGGYPRERVIPEQRNARILNEVKQITHNDLMTILKIIDQDFLKDTISGKYFQEYFFENCQDDEVAAYLKEVLA | failed |
| MKIATTSSAFDLLPKDQKYKTKRVSYNDFSDLSFLPVVNPKIKRQKKTLEEEVDSTSKAKSSRTSLTKSVTTTTKLTKPEETITASSKECLQETKTNKKPDLRDLIAKAQEKIQNKREINHRREYITRQRIAARLALNQMVATVSFDDHLNYHREMEQRGYTFIQDQVDNLNMFSLWSRSDYNGITNSVLETSNTTMRSDEDSSRKKQQIIKKKSNTFPTDVKEH | failed |
| MKIATYNVRVDTEYDQDWQWSFRKEAVCQLINFHDWSLCCIQEVRPNQVRDLKAYTTFTCLSAEREGDGQGEGLAILYNEQKVQAIDTGYFWLSETPQQPSIHPEAGCPRIALWGLFKETTQNTPFLVINVHLDHISAHARLAGMTVILEELHDKIAQYPTLLMGDFNAESGEEVHQLVQKKFQDSKNLATHYGPRGTFQNFTYTKPWAELEEIDYIYVKGWQVQQTASLTDSIDGRFPSDHFPLEAEVCIEE | failed |
| MKIAVVGGTGLVGQGILLELSKDTTLELHSISRNGKRPNSIAGVNYHSFDLAHDTSWHSLLQTSDWVIDCVGILLPNKSKNQTYENSSIEPAKLIIDSIANFDNKFLFISANSAPFFLNNYLHAKRTVENYASRKLGNRAISVYPGLVYSKFRRSNYYPAVILDFLLKFKLFSFLRKFRPISRERFAKEIHYIIEGKNSSLTYRI | failed |
| MKIEHVALWTTNLEQMKQFYVTYFGATANDLYENKTKGFNSYFLSFEDGARLEIMSRTDVTGKTTGENLGWAHIAISTGTKEAVDELTEKLRQDGFAIAGEPRMTGDGYYESVVLDPEGNRIEITW | not failed |
| MKIFKKSDISGIFHELGILISTIGFIMLLPSFIGIYFHEPFFYFLFPSLFFMILGLLINKITKPISVKLKHAMVISALAWLMASLIGAIPFYIGIEYFSYLDGVFESMSAWTTTGFSIVGDVESLPRTLQFWRSFEQWIGGVGVLAMVITILSKAGASAYYRAEAREEKIMPSTIGTIKKIWQIYLLYTTIGICLLYLSGLNLWSALNICMCGISTGGMSISNQSFPFNNFAKIIMTLIMYIGGVVSFSVHHNVLTGRRVDDIQTKTSIPILFFAAFVITLTSGIDPLDSLFTVVSAMTSTGFSSVQISSLTNISIAVLIFVMAIGGATGTTTGGIKLIRLVIMAKGFYYRLKEVVSPGNAIIYKKIGKNQLSDFLILDAFIIAFAYIIHYLFGTLVLISLGYDPFLSVFESVSLVANMGLSVDIVNHSLHPIAKILGVFSMWVGRLEIIPIYVLIILPLYLKLKDVGKNKISKNRKL | failed |
| MKIGIVIPAHNEEQHLSACLQSIQQAIQHTGHEQVEILVVLDSCTDQSRSVVESHQVNWIECNFACVGKARDLGIRQLIDQGVIWVACTDADTIVDSDWILCQMLHQPTDAICGVVTLDDLSHLSVQQQQKYLAHYQDSMDHQHIHGANLSFSAEAYIQAGGFEPIPCHEDVSLIEKFIKQCCKVTRSNLVRVTTSSRLNGRAPEGLSYFLKHL | failed |
| MKIINIGVLAHVDAGKTTLTESLLYTSGAIAESGSVDTGTTRTDTTFLERQRGITIQTAVTSFQWKDIKVNIIDTPGHMDFLAEVYRSLSVLDGAILLISARDGVQAQTRILFHALNKMGIPTIFFINKIDQNGIDLSTVYQDIKEKLSMEIIIKQKVELHPNMCVMSCTEPEQWDVVIEGNDYLLEKYTLGKSLEILELEQEEIRRFQNCSLYPVYHGSAKSNIGIEQLIEVITNKFYSSTYRKKSELCGNVFKIEYSEERQRLAYVRLYGGILHLRDSVRISEKEKIKITEMYTSINGELCKIDKAYSGEIVILQNEFLKLNSVLGDTKLLPQRERIENPLPLLQTTVEPSKPQQREMLLDALLEISDSDPLLQYYVDSTTHEIILSFLGKVQMEVTCALLQEKYHVEVKIKKPTVIYMERPLKKAEYTIHIEVPPNPFWASIGLSVAPLPLGSGVQYESSVSLGYLNQSFQNAVMEGIRYGCEQGLYGWNVTDCKICFKYGLYYSPVSTPADFRMLAPIVLEQVLKKAGTELLEPYLSFKIYAPQEYLSRAYNDAPKYCANIVDTQLKNNEVILSGEIPARCIQEYRNDLTFFTNGRSVCLTELKGYYVTTGESVCQPRRPNSRIDKVRYMFNKIT | failed |
| MKIITIEEHFESEVITNEINKVTGNLVSGQVSPEMFQYMQKELPSAMEMQDTEKRLAFMDQHGIDMQVLSYGNSSPQNLGPKISVALCKRANDELAKVIQQNPTRFAGFAVLPVGSPEDAAIELKRAVEELGFKGALVKGQFENKYFDNSFYYPIFEMAEKLDVPISFHPSFIPEPITEQYFASDAWSDVVTGVFSSAGFGWHMDVGIQVVRMILSGIFDKLPNLKIITGHLGEMVPMFLNRMDDTLGHWTTLERKISDYYRTNVYVTPSGLLYKNEWKFLLNELDENHLIYALDYPFVKTENAGTFLDTLDLTDEVKAKIAHENAEKLLHL | not failed |
| MKILNIFDAVRDGTFQDFKNFYEGNINVISGNLDLNLLCMAVTNDKNPEEKLQIIKFLFAEGIDVNYATQKEKRNALHLFYFCVLRPTIEYEMEITNLFIKHGVNVNATDKYNAIPLKYAITINNLPTSDNKEMYQLLLNKGSDYNLKDGFGKSCLDYAKEYSWRNDFLDIVKEYENSKK | failed |
